Patent publication US20220228161A1 (published 2022)
Read-outs that look alike come from different tables or passages of the source. Blank lines part the entries; values can stand above or below the molecule they belong to.

Legend:
[1] = target: Nicotiana benthamiana subtilisin-like serine protease SBT2, recombinant, C-terminal hexahistidine tag; assay: enzyme inhibition (fluorogenic substrate); pH 5.5, 30°C
[2] = target: Nicotiana benthamiana subtilisin-like serine protease SBT1, recombinant, C-terminal hexahistidine tag; assay: as above
[3] = target: gp41 peptide […]; assay: SPR, antibody captured on Protein A chip, peptide as analyte, 1:1 model
[4] = target: T1, Nicotiana benthamiana subtilisin-like serine protease SBT1, recombinant, C-terminal hexahistidine tag; assay: enzyme inhibition (fluorogenic substrate); pH 5.5, 30°C
T1 chain: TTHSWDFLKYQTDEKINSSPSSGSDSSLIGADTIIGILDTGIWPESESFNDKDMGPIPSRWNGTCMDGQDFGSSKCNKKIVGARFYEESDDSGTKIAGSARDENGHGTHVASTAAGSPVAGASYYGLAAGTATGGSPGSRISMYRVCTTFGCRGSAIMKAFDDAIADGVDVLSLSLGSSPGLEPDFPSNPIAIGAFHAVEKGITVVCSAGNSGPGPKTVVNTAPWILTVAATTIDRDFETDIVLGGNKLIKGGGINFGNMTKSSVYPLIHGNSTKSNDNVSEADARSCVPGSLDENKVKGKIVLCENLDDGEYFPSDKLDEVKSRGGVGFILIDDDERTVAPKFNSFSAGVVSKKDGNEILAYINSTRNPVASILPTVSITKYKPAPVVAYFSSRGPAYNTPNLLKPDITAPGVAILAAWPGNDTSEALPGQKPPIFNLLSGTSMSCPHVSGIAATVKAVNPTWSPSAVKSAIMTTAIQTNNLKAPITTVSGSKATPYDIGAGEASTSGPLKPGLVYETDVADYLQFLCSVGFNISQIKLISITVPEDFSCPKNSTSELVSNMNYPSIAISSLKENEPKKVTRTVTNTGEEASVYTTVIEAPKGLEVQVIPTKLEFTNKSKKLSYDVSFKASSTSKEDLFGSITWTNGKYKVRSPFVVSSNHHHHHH

[5] = target: T2, Nicotiana benthamiana subtilisin-like serine protease SBT2, recombinant, C-terminal hexahistidine tag; assay: as above
T2 chain: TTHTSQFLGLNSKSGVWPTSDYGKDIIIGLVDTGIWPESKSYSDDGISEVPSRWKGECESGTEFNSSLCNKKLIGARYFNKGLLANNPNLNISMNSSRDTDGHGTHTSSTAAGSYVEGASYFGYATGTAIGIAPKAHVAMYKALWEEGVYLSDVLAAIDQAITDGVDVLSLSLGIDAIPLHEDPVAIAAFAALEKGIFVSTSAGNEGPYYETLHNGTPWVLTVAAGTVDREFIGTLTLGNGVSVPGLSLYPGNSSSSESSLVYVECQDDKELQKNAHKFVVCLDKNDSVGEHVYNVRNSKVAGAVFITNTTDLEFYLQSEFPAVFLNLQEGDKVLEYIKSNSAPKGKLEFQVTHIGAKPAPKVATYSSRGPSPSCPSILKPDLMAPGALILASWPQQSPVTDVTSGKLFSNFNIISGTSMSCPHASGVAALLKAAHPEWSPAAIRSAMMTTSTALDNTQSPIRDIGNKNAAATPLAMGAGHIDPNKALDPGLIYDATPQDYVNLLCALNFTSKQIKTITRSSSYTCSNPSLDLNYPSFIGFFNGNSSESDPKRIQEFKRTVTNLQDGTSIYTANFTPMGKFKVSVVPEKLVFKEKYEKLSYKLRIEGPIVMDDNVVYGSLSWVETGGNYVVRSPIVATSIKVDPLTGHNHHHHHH

Molecule: S111g018590 (subtilisin propeptide-like inhibitor from S. lycopersicum)
Ki [2]: 51 nM

Molecule: cleaved 2F5 (2F5 degradation product after digestion with apoplastic fluid proteases) (antibody)
fold reduction of affinity against intact 2F5 [3]: > 20 fold

More lines, now with the values ahead:

Ki [1]: 27 nM
Molecule: S106g065370 (subtilisin propeptide-like inhibitor from S. lycopersicum)

Ki [4]: 81 nM
Ki [5]: 45 nM
B1: Arabidopsis thaliana subtilisin propeptide-like inhibitor 2 (other)
chain: RTLGPAPDNQQMKCYLVNVDFALYHGDCKQYQQLLKKVVHGRSAKDALVYCYKEVMSGFAAKLTAAEAEKLKGEKGISAIDVDHIFSMDVEPHSHGKGY
